Source: patent publication US20130189283A1

target: Kv1.3 voltage-gated potassium channel on T cells in human whole blood (human) (UniProt P22001); assay: cell-based or functional assay
Sequence (P22001 whole entry): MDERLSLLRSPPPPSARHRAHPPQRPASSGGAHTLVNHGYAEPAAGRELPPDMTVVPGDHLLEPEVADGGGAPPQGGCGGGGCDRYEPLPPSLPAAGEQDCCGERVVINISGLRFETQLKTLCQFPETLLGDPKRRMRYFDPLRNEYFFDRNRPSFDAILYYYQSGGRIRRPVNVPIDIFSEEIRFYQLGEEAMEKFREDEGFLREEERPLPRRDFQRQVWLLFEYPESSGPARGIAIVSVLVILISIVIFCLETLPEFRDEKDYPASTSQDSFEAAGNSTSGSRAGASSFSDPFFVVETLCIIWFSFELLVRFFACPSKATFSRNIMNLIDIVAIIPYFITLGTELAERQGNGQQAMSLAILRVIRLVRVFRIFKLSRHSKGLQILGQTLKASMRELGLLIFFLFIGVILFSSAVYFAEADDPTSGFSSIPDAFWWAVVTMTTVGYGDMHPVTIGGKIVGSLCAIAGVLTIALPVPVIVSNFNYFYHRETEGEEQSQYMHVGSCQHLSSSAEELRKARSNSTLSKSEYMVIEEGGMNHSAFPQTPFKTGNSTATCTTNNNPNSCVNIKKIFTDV

In order of rising Potency Relative to ShK (WB, IL2):
1. ShK(1-35) (peptide)  1 fold
2. 20 kDa-PEG-ShK (peptide)  5.67 fold
3. Monovalent Fc/Fc-L10-ShK[2-35] heterodimer (Fc fusion)  32.1 fold

In order of falling WB (IFNg) IC50:
1. Monovalent Fc/Fc-L10-ShK[2-35] heterodimer (Fc fusion)  5.2 nM
2. 20 kDa-PEG-ShK (peptide)  0.84 nM
3. ShK(1-35) (peptide)  0.078 nM

In order of falling WB (IL-2) IC50:
1. Monovalent Fc/Fc-L10-ShK[2-35] heterodimer (Fc fusion)  2.15 nM
2. 20 kDa-PEG-ShK (peptide)  0.38 nM
3. ShK(1-35) (peptide)  0.067 nM
